Laboratory results taken from publication PMC13623127 (PLOS One, 2026).
Blank lines part the entries; values can stand above or below the binder they belong to.

Experiments:
Assay in all cases: SPR; TNFSF member immobilised on ProteOn GLH chip by amine coupling (up to 5,000-14,500 RU); S100 analyte 62.5 nM to 16 uM, 300 s at 30 uL/min; 25°C; 10 mM HEPES-NaOH, 150 mM NaCl, 0.05% TWEEN 20, 1 mM CaCl2, pH 7.4; heterogeneous ligand, one-site or two-state model; constants averaged over analyte concentrations (SD, n = 2-9)
Details in all cases: both partners purified
[1] = biological target: T1, activation-inducible TNF-related ligand (TNF ligand superfamily member 18), recombinant soluble form (human, UniProt Q9UNG2 49-177)
T1 construct: also called AITRL
T1 sequence (looked up): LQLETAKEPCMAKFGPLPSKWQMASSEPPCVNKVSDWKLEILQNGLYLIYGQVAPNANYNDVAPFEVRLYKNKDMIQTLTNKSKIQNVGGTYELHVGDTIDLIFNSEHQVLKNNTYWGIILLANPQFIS

[2] = biological target: T2, A proliferation-inducing ligand (TNF ligand superfamily member 13), recombinant soluble form (human, UniProt O75888 105-250)
T2 construct: A proliferation-inducing ligand (TNF ligand superfamily member 13), human, recombinant soluble form; also called APRIL
T2 sequence (looked up): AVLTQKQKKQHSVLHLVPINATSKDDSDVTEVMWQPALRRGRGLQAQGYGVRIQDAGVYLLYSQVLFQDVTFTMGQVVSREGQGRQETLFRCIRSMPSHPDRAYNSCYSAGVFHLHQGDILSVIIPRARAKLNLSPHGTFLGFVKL

[3] = biological target: T3, TNF-related weak inducer of apoptosis (TNF ligand superfamily member 12), recombinant soluble form (human, UniProt O43508 94-249)
T3 construct: TNF-related weak inducer of apoptosis (TNF ligand superfamily member 12), human, recombinant soluble form; also called TWEAK
T3 sequence (looked up): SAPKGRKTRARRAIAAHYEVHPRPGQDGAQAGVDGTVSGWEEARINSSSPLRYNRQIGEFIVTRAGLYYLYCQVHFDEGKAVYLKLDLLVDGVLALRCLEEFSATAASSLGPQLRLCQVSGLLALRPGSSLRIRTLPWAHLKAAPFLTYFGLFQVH

[4] = biological target: T4, vascular endothelial cell growth inhibitor (TNF ligand superfamily member 15), recombinant soluble form (human, UniProt O95150 72-251)
T4 construct: also called VEGI
T4 sequence (looked up): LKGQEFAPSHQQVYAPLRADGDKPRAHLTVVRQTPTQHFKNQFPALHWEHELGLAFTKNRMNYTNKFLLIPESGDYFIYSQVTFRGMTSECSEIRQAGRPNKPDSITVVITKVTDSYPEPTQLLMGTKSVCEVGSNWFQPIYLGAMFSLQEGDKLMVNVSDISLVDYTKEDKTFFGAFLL

Kd [1]: 12000 nM | koff [1]: 0.00626 s⁻¹
B1: recombinant tag-free human S100B (natural protein, UniProt P04271 1-92, looked up)
chain: MSELEKAMVALIDVFHQYSGREGDKHKLKKSELKELINNELSHFLEEIKEQEVVDKVMETLDNDGDGECDFQEFMAFVAMVTTACHEFFEHE
notes: S100B, human, recombinant, tag-free; Tag-free

Kd [2]: 684 nM | koff [2]: 0.00122 s⁻¹
B2: recombinant tag-free human S100A2 (natural protein)
chain: not shown
notes: S100A2, human, recombinant, tag-free; Tag-free

Kd [2]: 11 nM | koff [2]: 4.85e-06 s⁻¹ | Kd [3]: 75.7 nM | koff [3]: 3.29e-05 s⁻¹ | Kd [1]: 409 nM | koff [1]: 0.000275 s⁻¹
B3: recombinant tag-free human S100A5 (natural protein, UniProt P33763 1-92, looked up)
chain: METPLEKALTTMVTTFHKYSGREGSKLTLSRKELKELIKKELCLGEMKESSIDDLMKSLDKNSDQEIDFKEYSVFLTMLCMAYNDFFLEDNK
notes: S100A5, human, recombinant, tag-free; Tag-free

Kd [4]: 11100 nM | koff [4]: 0.0123 s⁻¹
B4: recombinant tag-free human S100P (natural protein, UniProt P25815 1-95, looked up)
chain: MTELETAMGMIIDVFSRYSGSEGSTQTLTKGELKVLMEKELPGFLQSGKDKDAVDKLLKDLDANGDAQVDFSEFIVFVAAITSACHKYFEKAGLK
notes: S100P, human, recombinant, tag-free; Tag-free
